{"source": "paper PMC2817712", "binders": {"B1": {"name": "CheY4 (wild type) with an engineered C-terminal biotinylation tag, for SPR surfaces P12A; S13M; C16L; M17Y (protein)", "chain": "MTKTVLAVDDSAMIRLYVALTLREAGYEVIEASDGQEALDLALSRPVDAILTDQNMPRLDGLGFIRAFRSRPEGKGTPIVFLSTESADTLKAEARAAGALGWMVKPFTQAQLLAVMKKLLG"}, "B2": {"name": "CheY4 (wild type) with an engineered C-terminal biotinylation tag, for SPR surfaces P12A; S13M (protein)", "chain": "B1 chain with L16C, Y17M"}}, "target": "T1, CheA3P1, the isolated P1 (Hpt, histidine-containing phosphotransfer) domain of CheA3 (residues 1-135), unphosphorylated", "T1 chain": "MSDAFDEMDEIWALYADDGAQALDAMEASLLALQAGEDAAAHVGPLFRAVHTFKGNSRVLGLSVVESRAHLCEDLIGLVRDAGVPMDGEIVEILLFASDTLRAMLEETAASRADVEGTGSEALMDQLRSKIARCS", "assay": "SPR", "settings": "chain shown with the change; CheA3P1 injected over surfaces coupled with the respective RR; CheA3P1 concentration ranging from 120 nM to 2 mM; parent: ND", "note": "Positions count from the first letter of the chain named. In names and notes the source's numbering stands.", "data": [{"binder": "B1", "values": [{"measurement": "Kd", "value": 365, "unit": "µM"}]}, {"binder": "B2", "values": [{"measurement": "Kd", "value": 678, "unit": "µM"}]}]}
